Results on 20 molecules are retold here after US20050069542A1 (Human Genome Sciences, published 2005).

Positions count from the first letter of the chain named.

The experiment addresses T1, flag-tagged soluble TL3 (amino acids 105-251 of SEQ ID NO:234) (Homo sapiens (Human), UniProt O75888 105-250).
T1 construct: Heterologous flag-tagged control protein, immobilized in the ELISA; also called flagged tagged TL-3; not shown: Flag tag
T1 sequence: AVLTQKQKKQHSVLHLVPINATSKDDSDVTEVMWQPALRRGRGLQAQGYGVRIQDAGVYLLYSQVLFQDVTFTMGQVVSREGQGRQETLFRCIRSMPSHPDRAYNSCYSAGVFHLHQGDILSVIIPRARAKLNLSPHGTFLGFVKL
Briefly: phage ELISA on immobilized flag-tagged soluble TL3. Summed up: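 Phage displaying scFvs selected against flag-tagged GMAD were screened by ELISA against immobilized flag-tagged soluble TL3 (residues 105-251) as a heterologous flag-tagged counter-target, to check that binding is GMAD-specific.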

B1: GMBC609 (scFv)
scFv: QVQLVESGGGLVKPGESLRLSCEASGFEFNYAWMSWVRQAPGKGLEWVGRSRSEASGGTTDYAAPLQDRFTISRDDSKNTLYLQVNSLKIEDTGVYFCKWEKSEYYGMDVWGRGTPVTVSSGGGGSGGGGSGGGGSQSVLTQPPSVSAAPGQKVTISCSGSTSNIGNNYVSWYQQHPGKAPKLMIYDVSKRPSGVPDRFSGSKSGNSASLDISGLQSEDEADYYCAAWDDSLSEFLFGTGTKLTVLG
For the molecule B1, the binding result is on record as “no binding”.

B2: GMBC666 (scFv)
scFv: B1 scFv with Q1E, V12A, R113K, P116M
As for B2, the binding result is “no binding”.

B3: GMBC641 (scFv)
scFv: EVQLVESGGGVVRPGRSLRLSCAASGFSFSSYGMHWVRQAPGKGLEWVSAISGSGGSTYYADSVKGRFTISRDNSKNTLYLQMNSLRAEDTAVYFCAKGGDRSFRAFDFWGQGTMVTVSSGGGGSGGGGSGGGGSSELTQDPAVSVALGQTVRITCQGDSLRSYYASWYQQKPGQAPVLVIYGKNNRPSGIPDRFSGSSSGNTASLTITGAQAEDEADYYCNSRDSSGNHVVFGGGTKLTVLG
With B3, the binding result was “no binding”.

B4: GMBC642 (scFv)
scFv: QVQLQQSGAEVKKPGASVKVSCKASGYTFTIHYMHWVRQAPGQGLEWMGIINPGDGSTSYAQNFQGRVTMTRDTSTSTVYMELSSLRSEDTAVYYCARAGRTVTSHFDYWGRGTLATVSSGGGGSGGGGSGGGGSSELTQDPAVSVALGQTVRITCQGDSLRSYYASWYQQKPGQAPVLVIYGKNNRPSGIPDRFSGSSSGNTASLTITGAQAEDEADYYCNSRDSSGNHVVFGGGTKLTVLG
Take B4: the binding result is “no binding”.

B5: GMBC652 (scFv)
scFv: GVQLVQSGGVVVKPGGSLRLSCAASGFTFSDAWMNWVRQAPGKGLEWVGRIKSKGSGGTTDYAAPVKGRFTISRDDSENTLYLQMNSLKTEDTAVYYCTWDHSYYYDMAVWGRGTMVTASSGGGGSGGGGSGGGGSQSVLTQPASVSGSPGQSITISCTGTSSDVGGYNYVSWYQQHPGKAPKFMIYDVSKRPSGVSNRFSGSKSGNTASLTISGVQAEDEADYYCSSYTSASTVIFGGGTKLTVLG
B5: the binding result is given as “no binding”.

B6: GMBC646 (scFv)
scFv: GVQLVQSGAEVKKPGASVKVSCKASGYTFTSYYIHWVRQAPGQGLEWMGIINPSGGTTSYAQKFQGRVTMTRDTSTSTVYMELSSLRSEDTAMYYCARERFLRGMDVWGRGTMVTVSSGGGGSGGGGSGGGGSDIVMTQSPSTLSASVGDRVTITCRASQGISSWLAWYQQKPGRAPKVLIYKASTLESGVPSRFSGSGSGTDFTLTISSLQPEDFATYYCQQSYSTPWTFGQGTKLEIKR
For B6, the binding result is given as “no binding”.

B7: GMBC683 (scFv)
scFv: EVQLVESGGGLVQPGRSLRLSCAASGFTFSSYGMHWVRQAPGKGLEWVAVISYDGSNKYYADSVKGRFTISRDNSKNTLYLQMNSLRAEDTAVYYCAKRAAAGTLDYWGQGTTVTVSSGGGGSGGGGSGGGGSSELTQDPAVSVALGQTVRITCQGDSLRSYYASWYQQKPGQAPVLVIYGKNNRPSGIPDRFSGSSSGNTASLTITGAQAEDEADYYCNSRDSSGNHVVFGGGTKLTVLG
B7: the binding result is reported as “no binding”.

B8: GMBC673 (scFv)
scFv: EVQLVESGGGLVQTGGSLRLSCAASGFPIGSHWMSWVRQSPGKGLEWVASIKQDGREKHFVDSVKGRFGISRDNAKDSLYLQMNSLRIEDTAVYYCARETYGGYYYYFMDVWGRGTLVTVSSGGGGSGGGGSGGGGSSELTQDPAVSVALGQTVRITCQGDSLRSYYASWYQQKPGQAPVLVIYGKNNRPSGIPDRFSGSSSGNTASLTITGAQAEDEADYYCQTWGPGIRVFGGGTKLTVLG
On to B8, for which the binding result is “no binding”.

B9: GMBC655 (scFv)
scFv: EVQLVESGGGLVKPGGSLRLSCAASGFTFSSYGMSWIRQAPGKGQEWVSAISGSGGSAYYADSVKGRFTISRDNSKNTLYLQMNSLRAEDTAVYYCAKAYSSEDYWGRGTMVTVSSGGGGSGGGGSGGGGSNIQMTQSPSFLSASVGDRVTITCRASQGINNYLAWYQQKPGRAPKLLIYAASSLQSGVPSRFSGSGSGTDFTLTISSLQPDDFATYYCQQYSNYPLTFGGGTKLEIKR
In the case of B9, the binding result was “no binding”.

B10: GMBC639 (scFv)
scFv: GVQLVQSGAEVKTPGASVKVSCKASGYTFTNHYMHWVRQAPGQGIEWVGVINPSGDGSSYAQTFQGRVTMTRDTSTSTVYMELRSLRSDDTAVYYCARDLFYDFWSDYYRNDQYYYMDVWGKGTLVTVSSGGGGSGGGGSGGGGSSELTQDPAVSVALGQAVRITCQGDSLRSYYASWYQQKPGQAPVLVIYGKNNRPSGIPDRFSGSSSGNTASLTITGAQAEDEADYYCNSRDSSGNHVVFGGGTKLTVLG
On to B10, for which the binding result was “no binding”.

B11: GMBC606 (scFv)
scFv: EVQLVQSGGGVVQPGGSLRLSCAASGFTFSSYGMHWVRQAPGKGLEWVAFIRYDGSNKYYADSVKGRFTISRDNSKNTLYLQMNSLRAEDTAVYYCAKSSSFANAFDIWGQGTTVTVSSGGGGSGGGGSGGGGSSELTQDPAVSVALGQTVRITCQGDSLRSYYASWYQQKPGQAPVLVIYGKNNRPSGIPDRFSGSSSGNTASLTITGAQAEDEADYYCNSRDSSGNHVVFGGGTKLTVLG
Take B11: the binding result is reported as “no binding”.

B12: GMBC725 (scFv)
scFv: B11 scFv with S7T, R52L, F102S, N104S, G110R, G112R
As to B12, the binding result is recorded as “no binding”.

B13: GMBC657 (scFv)
scFv: QMQLMQSGGGLVKPGGSLRLSCAGSGFKFSDAWMNWVRQAPGKGLEWVGRIKSKGSGGTIEYAAPVKDRFIISRDDSKDTLYLQMNSLKTEDTALYYCTWDWDFYYGMNVWGQGTLVTVSSGGGGSGGGGSGGGGSSELTQDPAVSVALGQTVRITCQGDSLRSYYASWYQQKPGQAPVLVIYGKNNRPSGIPDRFSGSSSGNTASLTITGAQAEDEADYYCNSRDSSGNHVVFGGGTKLTVLG
In the case of B13, the binding result was “no binding”.

B14: GMBC668 (scFv)
scFv: EVQLVESGGGLVKPGGSLRLSCAASGFTFSDAWMNWVRQAPGKGLEWVGRIKSKGSGGTTDYAAPVKGRFTISRDDSENTLYLQMNSLKTEDTAVYYCTWDHSYYYDMAVWGRGTLVTVSSGGGGSGGGGSGGGGSSELTQDPAVSVALGQTVRITCQGDSLRSYYASWYQQKPGQAPVLVIYGKNNRPSGIPDRFSGSSSGNTASLTITGAQAEDEADYYCNSRDSSGNHVVFGGGTKLTVLG
Turning to B14, the binding result is given as “no binding”.

B15: GMBC682 (scFv)
scFv: B13 scFv with M2V, M5V, Q6E, L11V, G24A, E61D, I71T, D79N, Q113R
In the case of B15, the binding result was “no binding”.

B16: GMBC681 (scFv)
scFv: QVQLVQSGGGVVQPGGSLRLSCAASGFTFSSYGMHWVRQAPGKGLEWVAFIRYDGSNKYYADSVKGRFTISRDNSKNTLYLQMNSLRAEDTAVYYCAKGGTGYFDLWGRGTLVTVSSGGGGSGGGGSGGGGSDIQMTQSPSTLSASIGDRVTITCRASEGIYHWLAWYQQKPGKAPKLLIYKASSLASGAPSRFSGSGSGTDFTLTISSLQPDDFATYYCQQYSNYPLTFGGGTKLEIKR
With B16, the binding result is “no binding”.

B17: GMBC608 (scFv)
scFv: EVQLVQSGGGLVQPGRSLRLSCAASGFTFSDSYMTWIRQAPGEGLEFVSYISSGSSTTYYTDSVKGRFTISRDNSKNTLYLQMNSLRPEDTAVYYCARRSISSDYYSYYLDVWGKGTLVTVSSGGGGSGGGGSGGGGSSELTQDPAVSVALGQTVRITCQGDSLRSYYASWYQQKPGQAPVLVIYGKNNRPSGIPDRFSGSSSGNTASLTITGAQAEDEADYYCNSRDSSGNHVVFGGGTKLTVLG
As to B17, the binding result was “no binding”.

B18: GMBC669 (scFv)
scFv: QVQLVESGGALVKPGGSLRLSCAASGFTFSDAWMNWVRQAPGKGLEWVGRIKSKGSGGTIDYAAPVKDRFTISRDDSKNTLYLQMNSLKTEDTALYYCTWDWDFYYGMNVWGQGTLVTVSSGGGGSGGGGSGGGGSQSVLTQPPSASGSPGQSVTISCTGTSSDVGGYNYVSWYQQHPGKAPKFMIYDVSKRPSGVSNRFSGSKSGNTASLTISGVQAEDEADYYCSSYTSASTVIFGGGTKLTVLG
As for B18, the binding result is “no binding”.

B19: GMBC678 (scFv)
scFv: B18 scFv with Q1E, A10G
As for B19, the binding result is given as “no binding”.

B20: GMBC662 (scFv)
scFv: GVQLVQSGAEVKKPGSSVKVSCKASGGTFSSYTISWVRQAPGQGLEWMGRIIPILGIANYAQKFQGRVTITADKSTSTAYMELSSLRSEDTAVYYCAREKLRDFQHWGQGTLVTVSSGGGGSGGGGSGGGGSQSVLTQPASVSGSPGQSITISCTGTSSDVGGYNYVSWYQQHPGKAPKLMIYEGSKRPSGISNRFSGSKSGNTASLTISRLQAEDEADYYCSSYTTRSTRVFGGGTKLTVLG
Take B20: the binding result is recorded as “no binding”.
